{"source": "paper PMC7666136", "key": {"[1]": {"molecular_target": "T1, eGFP-53BP1 (wild-type TP53-binding protein 1 tagged with enhanced green fluorescent protein), Q12888", "T1 chain": "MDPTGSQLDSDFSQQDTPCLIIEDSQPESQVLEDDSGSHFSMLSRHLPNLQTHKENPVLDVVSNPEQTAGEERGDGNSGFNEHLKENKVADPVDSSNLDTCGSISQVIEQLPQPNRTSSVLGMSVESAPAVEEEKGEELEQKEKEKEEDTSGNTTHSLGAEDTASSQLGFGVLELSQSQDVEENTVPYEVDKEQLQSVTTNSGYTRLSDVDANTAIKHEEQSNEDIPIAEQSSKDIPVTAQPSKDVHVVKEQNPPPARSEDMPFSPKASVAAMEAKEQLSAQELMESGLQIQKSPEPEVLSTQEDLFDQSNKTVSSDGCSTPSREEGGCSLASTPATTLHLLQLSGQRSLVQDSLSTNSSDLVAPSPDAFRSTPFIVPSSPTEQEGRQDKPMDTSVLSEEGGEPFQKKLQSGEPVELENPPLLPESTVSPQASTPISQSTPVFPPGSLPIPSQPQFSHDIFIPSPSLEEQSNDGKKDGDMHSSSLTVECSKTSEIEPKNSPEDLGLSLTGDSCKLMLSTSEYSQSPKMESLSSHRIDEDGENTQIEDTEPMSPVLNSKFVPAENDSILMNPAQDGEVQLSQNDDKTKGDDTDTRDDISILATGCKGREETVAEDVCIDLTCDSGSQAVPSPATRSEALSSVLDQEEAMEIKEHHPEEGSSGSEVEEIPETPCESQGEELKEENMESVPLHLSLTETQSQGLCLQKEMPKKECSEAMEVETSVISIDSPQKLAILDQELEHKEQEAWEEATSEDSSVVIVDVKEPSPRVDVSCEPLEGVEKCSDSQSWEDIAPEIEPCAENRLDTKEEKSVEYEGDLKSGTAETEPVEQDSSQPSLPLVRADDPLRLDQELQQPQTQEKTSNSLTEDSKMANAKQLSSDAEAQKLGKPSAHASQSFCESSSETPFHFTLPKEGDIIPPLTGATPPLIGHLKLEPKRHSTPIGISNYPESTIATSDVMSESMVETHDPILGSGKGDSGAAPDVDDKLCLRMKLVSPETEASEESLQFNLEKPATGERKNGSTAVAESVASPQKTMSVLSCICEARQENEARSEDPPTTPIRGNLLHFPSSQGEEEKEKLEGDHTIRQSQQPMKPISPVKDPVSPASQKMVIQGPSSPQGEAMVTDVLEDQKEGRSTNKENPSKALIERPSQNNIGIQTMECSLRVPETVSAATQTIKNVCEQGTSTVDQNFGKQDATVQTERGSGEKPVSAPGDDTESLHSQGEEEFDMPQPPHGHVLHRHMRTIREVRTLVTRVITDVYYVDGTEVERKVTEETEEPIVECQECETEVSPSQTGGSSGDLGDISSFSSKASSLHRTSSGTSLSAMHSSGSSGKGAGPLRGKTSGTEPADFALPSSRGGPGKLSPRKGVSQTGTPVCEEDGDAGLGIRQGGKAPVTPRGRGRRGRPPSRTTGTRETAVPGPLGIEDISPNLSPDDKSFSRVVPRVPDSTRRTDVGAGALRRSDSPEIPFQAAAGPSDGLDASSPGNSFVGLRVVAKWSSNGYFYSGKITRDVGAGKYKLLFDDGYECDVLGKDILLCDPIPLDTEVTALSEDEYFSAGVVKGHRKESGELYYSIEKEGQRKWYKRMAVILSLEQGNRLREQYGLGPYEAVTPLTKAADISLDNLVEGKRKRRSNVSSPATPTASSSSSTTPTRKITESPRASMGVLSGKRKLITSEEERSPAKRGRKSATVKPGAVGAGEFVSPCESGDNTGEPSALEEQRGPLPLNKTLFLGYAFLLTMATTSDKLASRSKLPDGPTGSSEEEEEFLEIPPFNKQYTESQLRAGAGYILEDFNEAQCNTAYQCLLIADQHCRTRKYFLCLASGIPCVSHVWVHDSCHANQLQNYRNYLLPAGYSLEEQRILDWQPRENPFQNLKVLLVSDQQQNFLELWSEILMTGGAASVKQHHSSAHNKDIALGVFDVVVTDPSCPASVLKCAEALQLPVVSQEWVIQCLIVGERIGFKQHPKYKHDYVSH", "test": "Number and Brightness (NB) analysis of fluorescence fluctuation spectroscopy; frame scans in nuclei of live DIvA cells expressing eGFP-tagged 53BP1 constructs, 37 °C, brightness windows calibrated on free eGFP (B monomer 1.15, dimer 1.30, oligomer >1.60); before and 30-60 min after 4OHT induction of DSBs; also after knockdown of endogenous 53BP1", "conditions": "remark: other sources report otherwise"}, "[2]": {"molecular_target": "T1, eGFP-53BP1 (wild-type TP53-binding …)", "test": "cross-pair correlation function (cross-pCF) analysis, two-colour fluorescence cross-correlation; two-channel line scans in live DIvA cells co-transfected with eGFP- and mKate2-tagged copies of the same 53BP1 construct, treated with 4OHT for 60 min; dimer fraction from cross pCF0 against pCF0, corrected for spectral bleed through", "conditions": "remark: other sources report otherwise"}}, "data": [{"binder": "eGFP-53BP1 (wild-type TP53-binding protein 1 tagged with enhanced green fluorescent protein), Q12888 1-1972 (natural protein) MDPTGSQLDSDFSQQDTPCLIIEDSQPESQVLEDDSGSHFSMLSRHLPNLQTHKENPVLDVVSNPEQTAGEERGDGNSGFNEHLKENKVADPVDSSNLDTCGSISQVIEQLPQPNRTSSVLGMSVESAPAVEEEKGEELEQKEKEKEEDTSGNTTHSLGAEDTASSQLGFGVLELSQSQDVEENTVPYEVDKEQLQSVTTNSGYTRLSDVDANTAIKHEEQSNEDIPIAEQSSKDIPVTAQPSKDVHVVKEQNPPPARSEDMPFSPKASVAAMEAKEQLSAQELMESGLQIQKSPEPEVLSTQEDLFDQSNKTVSSDGCSTPSREEGGCSLASTPATTLHLLQLSGQRSLVQDSLSTNSSDLVAPSPDAFRSTPFIVPSSPTEQEGRQDKPMDTSVLSEEGGEPFQKKLQSGEPVELENPPLLPESTVSPQASTPISQSTPVFPPGSLPIPSQPQFSHDIFIPSPSLEEQSNDGKKDGDMHSSSLTVECSKTSEIEPKNSPEDLGLSLTGDSCKLMLSTSEYSQSPKMESLSSHRIDEDGENTQIEDTEPMSPVLNSKFVPAENDSILMNPAQDGEVQLSQNDDKTKGDDTDTRDDISILATGCKGREETVAEDVCIDLTCDSGSQAVPSPATRSEALSSVLDQEEAMEIKEHHPEEGSSGSEVEEIPETPCESQGEELKEENMESVPLHLSLTETQSQGLCLQKEMPKKECSEAMEVETSVISIDSPQKLAILDQELEHKEQEAWEEATSEDSSVVIVDVKEPSPRVDVSCEPLEGVEKCSDSQSWEDIAPEIEPCAENRLDTKEEKSVEYEGDLKSGTAETEPVEQDSSQPSLPLVRADDPLRLDQELQQPQTQEKTSNSLTEDSKMANAKQLSSDAEAQKLGKPSAHASQSFCESSSETPFHFTLPKEGDIIPPLTGATPPLIGHLKLEPKRHSTPIGISNYPESTIATSDVMSESMVETHDPILGSGKGDSGAAPDVDDKLCLRMKLVSPETEASEESLQFNLEKPATGERKNGSTAVAESVASPQKTMSVLSCICEARQENEARSEDPPTTPIRGNLLHFPSSQGEEEKEKLEGDHTIRQSQQPMKPISPVKDPVSPASQKMVIQGPSSPQGEAMVTDVLEDQKEGRSTNKENPSKALIERPSQNNIGIQTMECSLRVPETVSAATQTIKNVCEQGTSTVDQNFGKQDATVQTERGSGEKPVSAPGDDTESLHSQGEEEFDMPQPPHGHVLHRHMRTIREVRTLVTRVITDVYYVDGTEVERKVTEETEEPIVECQECETEVSPSQTGGSSGDLGDISSFSSKASSLHRTSSGTSLSAMHSSGSSGKGAGPLRGKTSGTEPADFALPSSRGGPGKLSPRKGVSQTGTPVCEEDGDAGLGIRQGGKAPVTPRGRGRRGRPPSRTTGTRETAVPGPLGIEDISPNLSPDDKSFSRVVPRVPDSTRRTDVGAGALRRSDSPEIPFQAAAGPSDGLDASSPGNSFVGLRVVAKWSSNGYFYSGKITRDVGAGKYKLLFDDGYECDVLGKDILLCDPIPLDTEVTALSEDEYFSAGVVKGHRKESGELYYSIEKEGQRKWYKRMAVILSLEQGNRLREQYGLGPYEAVTPLTKAADISLDNLVEGKRKRRSNVSSPATPTASSSSSTTPTRKITESPRASMGVLSGKRKLITSEEERSPAKRGRKSATVKPGAVGAGEFVSPCESGDNTGEPSALEEQRGPLPLNKTLFLGYAFLLTMATTSDKLASRSKLPDGPTGSSEEEEEFLEIPPFNKQYTESQLRAGAGYILEDFNEAQCNTAYQCLLIADQHCRTRKYFLCLASGIPCVSHVWVHDSCHANQLQNYRNYLLPAGYSLEEQRILDWQPRENPFQNLKVLLVSDQQQNFLELWSEILMTGGAASVKQHHSSAHNKDIALGVFDVVVTDPSCPASVLKCAEALQLPVVSQEWVIQCLIVGERIGFKQHPKYKHDYVSH", "values": [{"measurement": "fraction of dimer (NB, percent of pixels)", "setting": "[1]", "value": 26, "unit": "%"}, {"measurement": "fraction of oligomer (NB, percent of pixels)", "setting": "[1]", "value": 2, "unit": "%"}, {"measurement": "stoichiometry N", "setting": "[1]", "value": 2}, {"measurement": "fraction of 53BP1 dimer (cross pCF0 against pCF0)", "setting": "[2]", "value": 31, "unit": "%"}]}]}
